Source: the DeepSol protein solubility set

Assay: soluble on expression in E. coli; label from the status in PepcDB or PDB records

| Sequence | soluble on expression in E. coli |
| --- | --- |
| MSLTTFLFRNGALLDPDHPDLLQGFEILIEDGFIREVSDKPIKSSNAHVIDVKGKTIMPGLIDLHVHVVAIEFNLPRVATLPNVLVTLRAVPIMRAMLRRGFTTVRDAGGAGYPFKQAVESGLVEGPRLFVSGRALSQTGGHADPRARSDYMPPDSPCGCCVRVGALGRVADGVDEVRRAVREELQMGADQIKIMASGGVASPTDPVGVFGYSEDEIRAIVAEAQGRGTYVLAHAYTPAAIARAVRCGVRTIEHGNLIDDETARLVAEHGAYVVPTLVTYDALASEGEKYGLPPESIAKIADVHGAGLHSIEIMKRAGVKMGFGTDLLGEAQRLQSDEFRILAEVLSPAEVIASATIVSAEVLGMQDKLGRIVPGAHADVLVVDGNPLKSVDCLLGQGEHIPLVMKDGRLFVNELEGHEGHHHHHH | soluble |
| ICMNVENKVTHKPLEFNYTDKYCGNVKNLISCKLYQHALTLIDSFRKDKTI | not soluble |
| MIRVMLSQLSSVLNARLIGEDRAVSAVSTDSRAIPAEALFVALVGERFDAHDFASQAVTGGAVALLVERELDAECSQLVVADTKQALGQLGSWVHAQCQTPTVAITGSCGKTTVKEMVASILSQKGQVLYTQGNFNNDIGVPLTLLRSTTEDDYAVIELGANHVGEIAYTTALVKPDVALVNNVAAAHLEGFGSMDGVKRAKGEIYQGLQAGAVAIVNLDSNGGDYWKAVLADKTVKTFSATDHNADFYPRDVRLNALGIASFTLVTPVGEVGVELGIMGQHNVANALAAAALSLEMGASLAEIGQGLAHLSKVKGRVDMAQLRDDITLIDDSYNASVPAMKAAVELLGSFSAVRWLILGNMAELGDESLALHQQVGEHAAPFGFEFVLTYGKDAKVISDLCQGHHFATHQDMMTFIEQHIEQQQGRTQVLLVKGANSAGMSKIAAALKEKFA | not soluble |
| MSLTVSNNFKMIYIASCGEGINAFHLVESTLVQFPDSDITVVKVPHIRTESQVDHLLDRVKDVESLIAHTIVEPNLRQYLVTKAEEHKIVTIDLMGQVLNKIETFLSIRPLGKPGLYRETHQVDLKQVTAIDFALAHDDGLRPESLDEAEIILVGLSRAGKTPLSMYMGVMGWKVANIPYVPGVPMPQTLDEVDRRRVIALNINIEQLLSHRKMRQESLGTSDMHAYSRRQEVEVEVQTAQKYYITKGFSMIDVSNKPIETSAEEIAEMITRRFKAQAHEGHHHHHH | not soluble |
| GPGSMLVSYLRLQADRRTRHHMMVDGQINPREWFNWHPKEYQPWYFDRHKFLYEQRQYAQFHHLLCHQVYLKDMLHLMRYPEPYTHIIDCRTSTQKMHRWVPHSLWLPRDEVEYALQLSADEFLDMYGFRKPDKSDDVILLSHNGIYSEQAGWEWKKQFFQHVYNYRGGTNELFGESYSDMNVSDVLSPWKGPFPQSGVFVDKWSKRKVLTRTGPFDRQYEMQDFALPDLELEKARHPEEGPRQNMPFGLQ | not soluble |
| MMIENDETLNELHNDEEFCIKEQLSHVDHDEKVHVDSIVKKSECAHNYEQREKRDRSSSVDSKPEIKKICRCHESNCSKSSKYEKSSCGSKNKSGDSLSTASTGINECLNNSKNLNEPFKFFIGGIPQYITSKDTHELNGKRVDVREENNTTPSDIQRKIFVGGLNYYWTKDTLESYFSTFGEIDVVQIVLDSSGRSRCFGFVVFSNENSVAKVLKHKRHKIYDKMVEVRKAEPKKPKMSIKRSNNKNFSKFPPHIPFMAPFPPCNKETMAQWANFMYNTCGVPFLFNQRFQNLPDFYSNYNYYQNSLENIQQSEYNN | not soluble |
| MSGLRVYSTSVTGSREIKSQQSEVTRILDGKRIQYQLVDISQDNALRDEMRTLAGNPKATPPQIVNGNHYCGDYELFVEAVEQDTLQEFLKLA | soluble |
| MKPIACLFAAFAALPVLAHAQTVQMPDVLAAEHALSLGKPVTATIDLTRCTGDTATTPAGTTRGGVTVNPYRIQPDNTLSFSDTHFTVRSDGTPITQFLRYSIDTSGTARFSSYIFAMPAYTLQSQVSYTCKLGEGVKLFARFLEHHHHHH | soluble |
| MNRKIERMIIELEKECKAQNVELLLCATNFETGQGSTAFCGSVIGLAILLQKLVGDLKEQLSISESCDCPECVAEKAEDAANEKSMDELLTAFLRGELQ | not soluble |
| VPTDCTENWVVVYLSGPLFFMSSERLKQTLLQLETKSGVVFSMRGVPSIDSTALDILEEFCLAAEGRGQQVQFAALQPEVEKMIRTIQGNQEKEYHFSVAEFLQTVHVA | not soluble |
| MTLSRFAYNGQRCPSSHNILDNSKIISEDCRKELTELFHHYYPIEIDPHRTIKEKLPHMVQWWSKAHSLLCQQRIQKVQIAQVVGESTAMLREGYKTFFDTLYQNNIPLFIFSAGIGDILEEIIRQMKVFHPNIHIVSNYMDFSEDGFLKGFKGQLIHTYNKNSSVCENSSYFQQLQNKTNIILLGDSIGDLTMADGVPGVQNILKIGFLNDKVEERRERYMDSYDIVLEKDETLDVVNGLLRHILYQGDCVELQGS | soluble |
| MINRKIGFIGAGKMGSALMQGIIKAGIVQPENIGASDVYEPFLKELQTKLGIRVSTDNTVIVRESDILILAVKPQTLGSVLENLKNEITSEKLVISIAAGVPLSTYEGALLEGTRVVRVMPNIAATVSEAASGISPGKNATPEDMKDALTIFSAVGTAVQVPESLMDAVTGLSGSGPAFIFPVIEAMADGAVLEGMDRKSALTLAAQTVLGAAKMALETGMHPGELKDMVTSPAGTTIQGVHALEEAGIRAAFMNAVIRASERSRELGKKAAALEHHHHHH | soluble |
| MAHHHHHHMFKQRDNEYHPPMTVDPSGGGVTTSAGVFGEVGMGNVASPFLDGPAAVAGSRKRGRDIRSLDRFRAVVYGEDGFRRLHAMVARNPVLMYPPDGIEAARARVMVRKAELQSQLRSALGHREHNRNPADNGDDDVFALFEARRRAESDVHPATEGEEVPRQPASEHAPLPSSLASIRQDEELATYHHKQLDSYLRLLYEFNHATFVKLPMEDTLRLLSRCGKEAVAHIVEYETQVRLRRQSRIRDLNELRQEQAALEERRLAIDDAEQARLVQSAELRQAELDLELDNGVVKAEPPDDGSADEDVKVILETSSSSVHFASLPAGDSPEENMDGIVMAVEDEGIQYT | not soluble |
| MSLENLQTNFSLVQGSTKKLNGMGDDGSPPAKKMITDIHVNGKTINKVPTVKKEHLDDYGEAPVETDGEHVKRTCTSVPETLHLNPSLKHTLAQFHLSSQSSLGGPAAFSARHSQESMSPTVFLPLPSPQVLPGPLLIPSDSSTELTQTVLEGESISCFQVGGEKRLCLPQVLNSVLREFTLQQINTVCDELYIYCSRCTSDQLHILKVLGILPFNAPSCGLITLTDAQRLCNALLRPREGHHHHHH | soluble |
| MKMKYEWRKQEKTTYATKKQPQLLTIPAQTFMSIHGTGNPNGPEFQTHLQTLYPAAYGLKHAYKQYAQTQACEFDDYVVFPLEGVWSLTIKGQQLDHLDKDEFSYDIMIRVPDFVPNELIAPALAAVKAKKQLPTEQINVQQFDAMQVAQILHLGAYDDEPASFAKIDELVANQGMHRTSKIHREIYLSDARRVAPDKLKTILRYRVASN | not soluble |
| MGNINSLFTTNPSEILPVEVYLNDLSCDAVENLGSTRFMKVARGRTHEGVFVYKVFVRQDLASLDPFPQRIIDIRKALMKSPNCCPIKKVLVKQKYAVMVRAFQKHTLFDRLSTRPFVVEAEKMWYIFLLFKALSQCETAGVCHGDLKSQNVLISSTNWLQITDFAPFKPCFLTHDNPSSFTFFFDTSRRQSCYIAPERFISATEYDEKLRDGQDEWLFGSLTPKMDMFSAGCIVFELLCDRPPFTYSSLCEYRSMNDADAGNMLLRLIQDVPAPYRPLLRLLLNRDPSFRISANAVLTGAALKFPHILESFLFKYLDRFRPLYGTSTSSDPSTDDFSQALEFSYLEPDDVITKLKREKQLWWARLSENDESKSFAFLFVSLITANLRALRTIQGKTDAIRMLVELSTISDSSVAIDRILPYFVHLWMDPETQVRATAVTAVAELLAPIQPKTYEESLVFVDYLFPHLNSMSNDSIDSPQHVLFAIATSLGQFADTAYRFYMAGREIRQATMYDDEVSTAGEQQQNDDAGALLHGVSAMFSALCSKEPMVKRCLVESKSLILLYHFFIKIGNDDTLLRFLCTFLNAKTEWRLRAAFFDSLPVCVQKRSEGMVPLLQLGLQDGEEHVVVRALGCIHILIKNENLDKMSVKKLLDDVLPFLVHPNDWIRSTVCDILLAIDCQWHNAEVHVKLIPLVSPFVEESKRGVLTLKSKPVLMSQLVDPIPRTTFNQIIDQSLENTKQITMLLEIHFQTGKPFEAGAGWFNTIFPKIKTETKAGVVEHNDLKAALEARKRLTASVYSFRKLFERMAETRNTAGMEIYLTRQLGTIDLSSIAHSRVRRKEFTYGGDESAMSSNSKHLTAINIPNHSTERRDTLLLAGEVVIEEERTVTNTPAPYSPVKNTTFDNQVNEMLAHLNELHMRNVNCRPKRPLAASASHPVLSASPSAGSLGSSSNNNVKGIIITHLHEHSGKITKLCANRESDLFLSGSTDGTVKVWKTRSVLGEGYGSARSEDTWIPTETSREKVNSVGWNDQFACSATNDGFVRWADVGQGSARVATQVRIPDAEGPPVYLHCNGPMAIVRTHHGVLYGIDLRVGASEGPLKRHDIWRKKFQESHGLVTSSAIDPWQQSWMVIGNNSGQKNLVLYDLRFKEEVLRWESPHQNTQPNRVWANPVSRQECPEVFVGFSMHGEISTYELSAQPLRKRVFWTGGAPILSYSAASNDARKQDSLATRSLCVCEKTGVVYTGDTRGAIRKWNPTRAVGCEIISAPPKGRTAYRTIFEENDTSTAPSGASTDPFVIYERTVLDTEAKENQKVVPLDSKPSTYHRTPITDMMLLNSELLVSSGYDGVIKIWK | not soluble |
| MGSDKIHHHHHHMSSNTFTLGTKSVNRLGYGAMQLAGPGVFGPPRDRHVAITVLREALALGVNHIDTSDFYGPHVTNQIIREALYPYSDDLTIVTKIGARRGEDASWLPAFSPAELQKAVHDNLRNLGLDVLDVVNLRVMMGDGHGPAEGSIEASLTVLAEMQQQGLVKHIGLSNVTPTQVAEARKIAEIVCVQNEYNIAHRADDAMIDALAHDGIAYVPFFPLGGFTPLQSSTLSDVAASLGATPMQVALAWLLQRSPNILLIPGTSSVAHLRENMAAEKLHLSEEVLSTLDGISRE | not soluble |
| MAAKNAFYAQSGGVTAVINASAAGVIEAARKQSGKIGRIYAGRNGIIGALTEDLIDTGQESDAAISALRYTPSGAFGSCRYKLKSLEQNRREYERLIEVFKAHDIGYFFYNGGGDSADTCLKVSQLSGTLGYPIQAIHVPKTVDNDLPITDCCPGFGSVAKYIAVSTLEASFDVASMSATSTKVFVLEVMGRHAGWIAAAGGLASSPEREIPVVILFPEISFDKQKFLAKVDSCVKKFGYCSVVVSEGVKGDDGKFLSDQGVRDAFGHAQLGGVAPVVASMVKEGLGLKYHWGVADYLQRAARHIASKTDVEQAYAMGQAAVEFAVQGHNSVMPTIERISARPYQWKVGMAQLSQVANVEKMMPENFITEDGFGITDLCREYLAPLIEGEDYPPYKDGLPDYVRLKNVAVPKKLSGFTLLEHHHHHH | not soluble |
| MSLAKLNMNNEIKKVEQRLEKAIKSKDSVLEQASLHLLSSGGKRVRPAFVILSSQFGKDEQTSEQTYQVAVALELIHMATLVHDDVIDKSDKRRGKLTISKKWDQTTAILTGNFLLALGLEHLMAVKDNRVHQLISESIVDVCRGELFQFQDQFNSQQTIINYLRRINRKTALLIQISTEVGAITSQSDKETVRKLKMIGHYIGMSFQIIDDVLDFTSTEKKLGKPVGSDLLNGHITLPILLEMRKNPDFKLKIEQLRRDSERKEFEECIQIIRKSDSIDEAKAVSSKYLSKALNLISELPDGHPKSLLLSLTKKMGSRNTEGHHHHHH | soluble |
| MKPAYFISDLHLSEKQPELTALLLRFLRSSAAGQARAIYILGDLFDFWVGDDEVSELNTSVAREIRKLSDKGVAVFFVRGNRDFLIGQDFCRQAGMTLLPDYSVLDLFGCKTLICHGDTLCTDDRAYQRFRKIVHRKRLQKLFLMLPLKWRTRLATKIRRVSKMEKQVKPADIMDVNAAFTARQVRAFGAERLIHGHTHREHIHHENGFTRIVLGDWHNDYASILRVDGDGAVFVPLEKY | not soluble |
